Experimental data published in the supplement of paper PMC6757056.
± gives the standard deviation of the averaged measurements.

B1: library; a variant is named by its letters at N, in order (parent)
chain: GCUGUCACCGAGAAACUGUGAAGUAUAUCUUAAACCUGGGCACUUAAAAGAUAUAUGGAGUUAGUAGUGCAACCUGCUCGGUCUGAUGAGUCCNNNNNNGGACGAAACAGC

Columns and labels:
[1] = variants of: B1; assay: normalized RNA/DNA level without ligand (relative to sTRSVctl = 100) (log10 (% of sTRSVctl)); HEK293T; ligand: cyclic di-GMP (c-di-GMP-II aptamer); higher = less ribozyme self-cleavage, higher mRNA level; details: reporter: mCherry (pCS4076), ligand present: no
How it was run: (§1)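 For each 6-well well, 4 µg of library plasmid encoding mCherry-linked ribozyme switches, or eGFP-linked ones in some ligand experiments, was transfected into HEK293T. Any ligand was added 1 h before transfection, and RNA was extracted with EDTA 72 h after it, then reverse-transcribed, amplified, barcoded and sequenced. RNA level was obtained by dividing RNA reads by DNA reads, normalizing to a spiked-in non-cleaving sequence or to the top sequences, then scaling and log-transforming. The top set was 25 sequences, scaling was ×100 with log10, and ≥100 DNA reads were required.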

[2] = variants of: B1; assay: normalized RNA/DNA level with ligand (relative to sTRSVctl = 100) (log10 (% of sTRSVctl)); HEK293T; ligand: cyclic di-GMP (c-di-GMP-II aptamer); ligand concentration (+) RNA-Seq: 1 mM; higher = less ribozyme self-cleavage, higher mRNA level; details: reporter: mCherry (pCS4076), ligand present: yes
How it was run: as §1

Row | Variant | normalized RNA/DNA level without ligand (log10) [1] | normalized RNA/DNA level with ligand (log10) [2]
1 | UCACGC | 1.7 ± 0.045 | 1.84 ± 0.08
2 | AUCCGU | 1.74 ± 0.041 | 1.89 ± 0.12
3 | AUCCGC | 1.76 ± 0.032 | 1.88 ± 0.13
4 | CUUAUG | 1.67 ± 0.022 | 1.81 ± 0.1
5 | UACACG | 1.76 ± 0.029 | 1.86 ± 0.088
6 | CUUAGA | 1.61 ± 0.024 | 1.79 ± 0.12
7 | UAGGGG | 1.563 ± 0.0094 | 1.72 ± 0.079
8 | GCUACU | 1.66 ± 0.019 | 1.81 ± 0.1
9 | GCGAAC | 1.28 ± 0.15 | 1.54 ± 0.052
10 | GCCCUU | 1.701 ± 0.0065 | 1.85 ± 0.097
11 | UCUUGU | 1.732 ± 0.004 | 1.88 ± 0.1
12 | GUGUAA | 1.48 ± 0.027 | 1.67 ± 0.1
13 | CGUUGG | 1.737 ± 0.0074 | 1.85 ± 0.072
14 | UAGAGC | 1.712 ± 0.005 | 1.85 ± 0.047
15 | AGCAAG | 1.51 ± 0.09 | 1.68 ± 0.079
16 | UAACUA | 1.688 ± 0.0017 | 1.82 ± 0.12
17 | UCACUC | 1.73 ± 0.068 | 1.89 ± 0.12
18 | CACAUG | 1.717 ± 0.01 | 1.84 ± 0.095
19 | GAAUUU | 1.652 ± 0.015 | 1.85 ± 0.12
20 | GUCGAG | 1.617 ± 0.0063 | 1.76 ± 0.12
21 | AGAGGG | 1.47 ± 0.098 | 1.62 ± 0.13
22 | ACCGUU | 1.52 ± 0.028 | 1.72 ± 0.1
23 | CUGAUC | 1.6663 ± 0.001 | 1.76 ± 0.13

Row | Variant | normalized RNA/DNA level without ligand (log10) [1] | normalized RNA/DNA level with ligand (log10) [2]
24 | GCGCAA | 1.57 ± 0.044 | 1.72 ± 0.13
25 | CUGGUU | 1.67 ± 0.025 | 1.83 ± 0.08
26 | GACAAU | 1.59 ± 0.062 | 1.74 ± 0.071
27 | UGCGCG | 1.821 ± 0.0063 | 1.92 ± 0.085
28 | UUCGUA | 1.64 ± 0.021 | 1.82 ± 0.11
29 | AAGUUG | 1.56 ± 0.072 | 1.75 ± 0.11
30 | GACGCG | 1.81 ± 0.055 | 1.88 ± 0.045
31 | AGGCAA | 1.45 ± 0.082 | 1.6 ± 0.11
32 | UCUUCU | 1.76 ± 0.066 | 1.84 ± 0.11
33 | UGCUUG | 1.74 ± 0.06 | 1.88 ± 0.14
34 | GCUUCC | 1.72 ± 0.023 | 1.85 ± 0.034
35 | AUUUGU | 1.66 ± 0.017 | 1.85 ± 0.12
36 | UUCUGA | 1.73 ± 0.023 | 1.83 ± 0.046
37 | UGAGGC | 1.74 ± 0.028 | 1.87 ± 0.12
38 | AUAACA | 1.62 ± 0.003 | 1.77 ± 0.14
39 | CCCCGG | 1.83 ± 0.049 | 1.94 ± 0.11
40 | AGCCAG | 1.68 ± 0.077 | 1.79 ± 0.058
41 | GCAUCG | 1.59 ± 0.045 | 1.76 ± 0.099
42 | AAUUCU | 1.769 ± 0.0077 | 1.9 ± 0.092
43 | AGUUAC | 1.7078 ± 0.0015 | 1.85 ± 0.15
44 | AUGGCC | 1.78 ± 0.024 | 1.9 ± 0.13
45 | AGGGCU | 1.69 ± 0.034 | 1.85 ± 0.088
46 | GUAUUC | 1.48 ± 0.036 | 1.7 ± 0.11

Row | Variant | normalized RNA/DNA level without ligand (log10) [1] | normalized RNA/DNA level with ligand (log10) [2]
47 | AGAUUG | 1.58 ± 0.049 | 1.77 ± 0.081
48 | AUACUU | 1.658 ± 0.0084 | 1.83 ± 0.13
49 | UGGCGU | 1.6 ± 0.03 | 1.81 ± 0.16
50 | UGGCGA | 1.597 ± 0.0046 | 1.74 ± 0.11
51 | UACAAG | 1.69 ± 0.02 | 1.8 ± 0.12
52 | ACCCAG | 1.777 ± 0.0092 | 1.86 ± 0.06
53 | CUACGC | 1.74 ± 0.043 | 1.86 ± 0.084
54 | UUAGUA | 1.609 ± 0.0054 | 1.79 ± 0.13
55 | UCCACC | 1.635 ± 0.0036 | 1.8 ± 0.12
56 | UCCGUC | 1.75 ± 0.018 | 1.9 ± 0.14
57 | AUGCGC | 1.732 ± 0.016 | 1.86 ± 0.099
58 | AUGCGU | 1.679 ± 0.011 | 1.79 ± 0.099
59 | UUACUU | 1.68 ± 0.022 | 1.83 ± 0.11
60 | UUGUGC | 1.75 ± 0.027 | 1.86 ± 0.052
61 | UUGUGG | 1.795 ± 0.0063 | 1.9 ± 0.1
62 | UGUUAA | 1.693 ± 0.01 | 1.85 ± 0.09
63 | AAUCGG | 1.6 ± 0.048 | 1.76 ± 0.12
64 | AUGGAC | 1.6 ± 0.055 | 1.76 ± 0.091
65 | ACCUGC | 1.71 ± 0.029 | 1.85 ± 0.076
66 | UGAGAA | 1.6654 ± 7.7e-05 | 1.81 ± 0.1
67 | AUAAGU | 1.55 ± 0.033 | 1.73 ± 0.12
68 | ACAUCG | 1.51 ± 0.1 | 1.71 ± 0.16
69 | CAUCAU | 1.56 ± 0.064 | 1.72 ± 0.072

Row | Variant | normalized RNA/DNA level without ligand (log10) [1] | normalized RNA/DNA level with ligand (log10) [2]
70 | AUUCGU | 1.79 ± 0.024 | 1.86 ± 0.12
71 | UGAUGG | 1.68 ± 0.081 | 1.83 ± 0.066
72 | UAACAG | 1.68 ± 0.02 | 1.86 ± 0.098
73 | UAACAU | 1.62 ± 0.019 | 1.76 ± 0.08
74 | CUGCAG | 1.73 ± 0.075 | 1.88 ± 0.11
75 | UACCGG | 1.68 ± 0.025 | 1.87 ± 0.11
76 | UGGGAU | 1.55 ± 0.12 | 1.75 ± 0.11
77 | UCCCGG | 1.855 ± 0.016 | 1.93 ± 0.069
78 | GGUUGU | 1.7 ± 0.061 | 1.86 ± 0.16
79 | ACGAUC | 1.56 ± 0.074 | 1.75 ± 0.085
80 | GAGUUC | 1.81 ± 0.069 | 1.9 ± 0.06
81 | UGAAGA | 1.62 ± 0.024 | 1.77 ± 0.13
82 | GAGGUU | 1.73 ± 0.072 | 1.85 ± 0.083
83 | ACAACC | 1.67 ± 0.02 | 1.82 ± 0.1
84 | UCAGUU | 1.52 ± 0.16 | 1.74 ± 0.13
85 | UUUUAG | 1.74 ± 0.022 | 1.89 ± 0.065
86 | CGGGCU | 1.84 ± 0.033 | 1.92 ± 0.14
87 | GGCAGC | 1.716 ± 0.013 | 1.82 ± 0.081
88 | GGUCAA | 1.4 ± 0.095 | 1.64 ± 0.092
89 | AGUAUU | 1.68 ± 0.037 | 1.83 ± 0.1
90 | UUAAAC | 1.7 ± 0.057 | 1.8 ± 0.097
91 | GGUGCA | 1.78 ± 0.12 | 1.91 ± 0.13
92 | GAACAC | 1.641 ± 0.014 | 1.78 ± 0.1

Row | Variant | normalized RNA/DNA level without ligand (log10) [1] | normalized RNA/DNA level with ligand (log10) [2]
93 | AGCUCU | 1.76 ± 0.096 | 1.88 ± 0.17
94 | GUGUCG | 1.685 ± 0.012 | 1.79 ± 0.11
95 | UGUAUC | 1.734 ± 0.0024 | 1.87 ± 0.11
96 | UGUAUU | 1.73 ± 0.016 | 1.9 ± 0.091
97 | GGGCAG | 1.823 ± 0.015 | 1.89 ± 0.045
98 | CGUCAU | 1.46 ± 0.042 | 1.64 ± 0.13
99 | CAAGGU | 1.64 ± 0.037 | 1.8 ± 0.1
100 | GCGCGU | 1.59 ± 0.1 | 1.75 ± 0.044
101 | AAGGUC | 1.61 ± 0.034 | 1.75 ± 0.077
102 | AGAGUG | 1.72 ± 0.029 | 1.8 ± 0.09
103 | CGAUCC | 1.82 ± 0.026 | 1.9 ± 0.088
104 | CGAUCA | 1.6 ± 0.026 | 1.74 ± 0.12
105 | CUGCGC | 1.823 ± 0.0074 | 1.92 ± 0.052
106 | UACUGG | 1.731 ± 0.015 | 1.85 ± 0.12
107 | CGAGCA | 1.83 ± 0.067 | 1.89 ± 0.12
108 | GGCAAA | 1.55 ± 0.074 | 1.65 ± 0.16
109 | GUAGCG | 1.81 ± 0.022 | 1.88 ± 0.059
110 | CGACAC | 1.594 ± 0.0068 | 1.76 ± 0.11
111 | GACCAU | 1.64 ± 0.022 | 1.79 ± 0.13
112 | UUAUGC | 1.73 ± 0.012 | 1.81 ± 0.1
113 | UUAUGU | 1.7 ± 0.024 | 1.84 ± 0.11
114 | UAAGGC | 1.66 ± 0.058 | 1.81 ± 0.056
115 | AUCCCU | 1.7543 ± 0.001 | 1.91 ± 0.07
